{"source": "patent US20020160000A1", "about": "(Dana-Farber, published 2002)", "key": {"[1]": {"target": "T1, human B7-4M (B7-4 membrane form) expressed on transfected COS or CHO cells (human, UniProt Q9NZQ7 19-290)", "T1 construct": "Cell-surface form on transiently transfected COS cells or on CHO transfectants; also called B7-4M (292); COS cells expressing B7-4M", "T1 sequence (Q9NZQ7 19-290)": "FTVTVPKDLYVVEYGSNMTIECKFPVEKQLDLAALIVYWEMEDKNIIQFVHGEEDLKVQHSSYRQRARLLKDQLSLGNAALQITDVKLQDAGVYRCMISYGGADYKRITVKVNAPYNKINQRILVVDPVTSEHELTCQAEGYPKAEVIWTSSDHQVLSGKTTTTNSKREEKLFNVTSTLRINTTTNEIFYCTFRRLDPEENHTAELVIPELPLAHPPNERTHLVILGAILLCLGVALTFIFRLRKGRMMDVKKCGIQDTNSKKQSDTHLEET", "experiment": "flow cytometry on human B7-4 CHO cells"}, "[2]": {"target": "T2, soluble human B7-4.Ig / B7-4-Fc fusion protein (Example 11) (human, UniProt Q9NZQ7 19-238)", "T2 construct": "not shown: Fc/Ig portion", "T2 sequence (Q9NZQ7 19-238)": "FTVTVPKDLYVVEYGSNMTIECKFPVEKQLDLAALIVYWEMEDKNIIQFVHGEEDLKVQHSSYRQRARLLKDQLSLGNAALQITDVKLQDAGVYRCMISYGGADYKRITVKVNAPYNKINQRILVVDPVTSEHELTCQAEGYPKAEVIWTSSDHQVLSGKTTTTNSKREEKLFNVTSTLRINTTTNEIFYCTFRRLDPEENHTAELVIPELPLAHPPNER", "experiment": "BIACORE, PD-1-Fc immobilized, concentrated COS cell medium injected"}, "[3]": {"target": "T3, human PD-1-Fc (extracellular region of human PD-1 fused to hinge-CH2-CH3 of human immunoglobulin gamma 1) (human, UniProt P01857 99-330 = IgG part)", "T3 construct": "domain: hinge-CH2-CH3; also called PD-1-Fc (human Ig gamma1); Human PD-1 linked to IgG1", "T3 sequence (P01857 other isoform, or with tags, fused parts or gaps limits assumed)": "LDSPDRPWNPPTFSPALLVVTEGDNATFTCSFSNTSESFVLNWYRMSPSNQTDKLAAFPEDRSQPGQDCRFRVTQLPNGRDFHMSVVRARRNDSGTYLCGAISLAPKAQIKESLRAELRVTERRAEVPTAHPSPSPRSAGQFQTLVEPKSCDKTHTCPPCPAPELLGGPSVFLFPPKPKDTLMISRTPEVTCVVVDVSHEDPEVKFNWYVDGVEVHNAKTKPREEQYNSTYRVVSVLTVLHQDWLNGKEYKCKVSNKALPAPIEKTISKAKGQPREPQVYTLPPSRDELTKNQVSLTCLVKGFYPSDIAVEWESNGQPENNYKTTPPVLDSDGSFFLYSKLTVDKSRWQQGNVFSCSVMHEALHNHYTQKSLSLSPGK", "experiment": "BIACORE, PD-1-Fc immobilized"}, "[4]": {"target": "T1, human B7-4M (B7-4 membrane form) …", "experiment": "FACS on B7-4M-transfected COS cells", "experimental": "COS cells were transfected with either vector DNA (pcDNAI), or an expression plasmid containing the B7-4M cDNA. After 72 hours, the transfected COS cells were detached by incubation in PBS containing 0.5 mM EDTA for 30 min. at 37° C.\nThe ability of COS cells expressing B7-4M to bind to various T cell receptors and antibodies was tested. […] The ability of COS cells expressing B7-4M to bind to IgG and murine ICOS-his fusion protein was also tested."}}, "data": [{"binder": "murine PD-1-Fc / murine PD-1.Ig fusion protein (Fc fusion, UniProt Q02242 25-169, looked up, also called mouse PD-1; not shown: Fc/Ig portion) LEVPNGPWRSLTFYPAWLTVSEGANATFTCSLSNWSEDLMLNWNRLSPSNQTEKQAAFCNGLSQPVQDARFQIIQLPNRHDFHMNILDTRRNDSGIYLCGAISLHPKAKIEESPGAELVVTERILETSTRYPSPSPKPEGRFQGM", "values": [{"measurement": "binding result", "setting": "[1]", "result": "binds"}, {"measurement": "binding result", "setting": "[2]", "result": "binds"}]}, {"binder": "soluble form of human B7-2 (ligand, also called soluble forms of B7-2) APLKIQAYFNETADLPCQFANSQNQSLSELVVFWQDQENLVLNEVYLGKEKFDSVHSKYMGRTSFDSDSWTLRLHNLQIKDKGLYQCIIHHKKPTGMIRIHQMNSELSVLANFSQPEIVPISNITENVYINLTCSSIHGYPEPKKMSVLLRTKNSTIEYDGVMQKSQDNVTELYDVSISLSVSFPDVTSNMTIFCILETDKTRLLSSPFSIELEDPQPPPDHIP", "values": [{"measurement": "binding result", "setting": "[3]", "result": "no binding"}]}, {"binder": "soluble form of human B7-1 (ligand, also called soluble forms of B7-1) VIHVTKEVKEVATLSCGHNVSVEELAQTRIYWQKEKKMVLTMMSGDMNIWPEYKNRTIFDITNNLSIVILALRPSDEGTYECVVLKYEKDAFKREHLAEVTLSVKADFPTPSISDFEIPTSNIRRIICSTSGGFPEPHLSWLENGEELNAINTTVSQDPETELYAVSSKLDFNMTTNHSFMCLIKYGHLRVNQTFNWNTTKQEHFPDN", "values": [{"measurement": "binding result", "setting": "[3]", "result": "no binding"}]}, {"binder": "murine ICOS-his fusion protein (receptor, UniProt Q9WVS0 21-144, looked up, not shown: his tag) EINGSADHRMFSFHNGGVQISCKYPETVQQLKMRLFREREVLCELTKTKGSGNAVSIKNPMLCLYHLSNNSVSFFLNNPDSSQGSYYFCSLSIFDPPPFQERNLSGGYLHIYESQLCCQLKLWL", "values": [{"measurement": "binding result", "setting": "[4]", "result": "no binding"}]}]}
